Four molecules from patent US20220119534A1 (DRAGONFLY THERAPEUTICS, published 2022) can be followed below.

Changes are numbered by the printed parent chain. In names and notes the source's numbering stands. Several values for one entry are separate records, joined by “and”; a condition that tells them apart may be missing. Equal values may be shown once.

Experiment [1] has as its target T1, mFc-hNKG2D (human, UniProt P26718 73-216).
T1 construct: extracellular domain; Made in house (Dragonfly Tx); the order of tag and ECD follows the name mFc-hNKG2D; also called mFc-tagged human NKG2D; not shown: mouse Fc tag
T1 sequence (looked up): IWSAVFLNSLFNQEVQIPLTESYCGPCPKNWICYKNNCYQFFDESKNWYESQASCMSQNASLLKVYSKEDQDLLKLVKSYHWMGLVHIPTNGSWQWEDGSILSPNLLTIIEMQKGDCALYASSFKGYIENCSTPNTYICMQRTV
Nature of the experiment: SPR Biacore 8K 37 C; mFc-hNKG2D captured on anti-mFc chip, TriNKET as analyte; steady state fit; control sample, n=2.

The target of experiment [2] is T1, mFc-hNKG2D. Nature of the experiment: SPR Biacore 8K 37 C; mFc-hNKG2D captured on anti-mFc chip, TriNKET as analyte; steady state affinity fit; average of 4.
The target in experiment [3] is T1, mFc-hNKG2D. Kind of experiment: SPR Biacore 8K 37 C; mFc-hNKG2D captured on anti-mFc chip, TriNKET as analyte; steady state fit; after 2 wks 40 C at pH 5.0.
In a further experiment the target is T2, Cynomolgus CD64 (cynomolgus monkey, UniProt A0A2K5U901 33-309, Probably biotinylated for capture, as in the sister examples (p-1094).).
T2 construct: Bought recombinant receptor; also called cFcγRI; Cynomolgus CD64 (FcγRI); not shown: The vendor's biotinylation and purification tag
Nature of the experiment: SPR, cynomolgus CD64 captured.

A further experiment deals with T3, Human CD16a V158 (human, UniProt P08637 17-208, biotinylated).
T3 construct: Bought recombinant receptor; also called hCD16a (V158); hFcγRIIIa V158
Nature of the experiment: SPR; sample after 4 weeks at 40 C in HST pH 6.0.

The next experiment deals with T4, Human CLEC12A-His (human, UniProt Q5QGZ9 65-265).
T4 construct: Recombinant soluble protein made in house; also called hCLEC12A-His; hCLEC12A; not shown: His tag
T4 sequence: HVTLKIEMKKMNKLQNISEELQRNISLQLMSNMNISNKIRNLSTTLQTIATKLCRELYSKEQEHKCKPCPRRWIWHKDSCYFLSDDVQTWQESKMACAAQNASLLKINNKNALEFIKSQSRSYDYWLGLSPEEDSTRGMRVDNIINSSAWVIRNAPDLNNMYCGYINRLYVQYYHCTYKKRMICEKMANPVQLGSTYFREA
Kind of experiment: SPR; sample after 4 weeks at 40 C in HST pH 6.0.

In experiment [4] the target is T5, mFc-hNKG2D (human, UniProt P26718 73-216).
T5 construct: extracellular domain; Recombinant mFc-tagged NKG2D dimer, made in house; also called human NKG2D; not shown: mouse Fc tag
T5 sequence (looked up): T1 sequence (looked up)
Nature of the experiment: SPR; sample after 4 weeks at 40 C in HST pH 6.0.

The target in the next experiment is T6, Human CD32b (human, UniProt P31994 46-217, limits assumed, biotinylated).
T6 construct: Bought recombinant receptor; also called hFcγRIIb
T6 sequence (looked up): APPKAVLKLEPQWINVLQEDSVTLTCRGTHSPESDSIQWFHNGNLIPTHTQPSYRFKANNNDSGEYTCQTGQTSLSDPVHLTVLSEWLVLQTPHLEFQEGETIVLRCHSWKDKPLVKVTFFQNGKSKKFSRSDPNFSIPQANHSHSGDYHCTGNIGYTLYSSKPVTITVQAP
Kind of experiment: SPR, steady state fit.

For experiment [5], the target named is T7, Human CLEC12A-His (recombinant, K244 WT) (human, UniProt Q5QGZ9 65-265).
T7 construct: Made in house (Dragonfly Tx); also called hCLEC12A; hCLEC12A-His; not shown: His tag
T7 sequence: T4 sequence
Nature of the experiment: SPR, two-state fit (ka1); control sample.

For experiment [6], the target named is T7, Human CLEC12A-His (recombinant, K244 WT). Nature of the experiment: SPR, two-state fit; control sample.
For experiment [7] the target is unchanged. Kind of experiment: SPR, two-state fit; after pH 8, 40C, 2 wks.
The target is the same in experiment [8]. Nature of the experiment: SPR 37C, AB0089 captured on anti-hFc, two-state fit (kd1).
For experiment [9], the target named is T8, mFc-hNKG2D (recombinant mFc-tagged human NKG2D dimer) (human, UniProt P26718 73-216).
T8 construct: extracellular domain; Made in house; not shown: mouse Fc tag
T8 sequence (looked up): T1 sequence (looked up)
Kind of experiment: SPR; after forced oxidation.

Experiment [10] addresses T8, mFc-hNKG2D (recombinant mFc-tagged …). Nature of the experiment: SPR 37C, mFc-hNKG2D captured, 1:1 kinetic fit.
Experiment [11] addresses T9, recombinant cynomolgus FcRn (cynomolgus monkey, UniProt Q8SPV9 24-297; Q8SPW0 21-119).
T9 construct: also called cFcRn; cyno FcRn
Nature of the experiment: SPR 25C, pH 6.0, steady state, average; pH 6.0; average of four replicates.

The target in experiment [12] is T10, human CLEC12A expressed on cells (human, UniProt Q5QGZ9 1-265).
T10 construct: Transduced isogenic cells or endogenous expression on AML cells; also called RMA-hCLEC12A; Ba/F3-hCLEC12A
T10 sequence: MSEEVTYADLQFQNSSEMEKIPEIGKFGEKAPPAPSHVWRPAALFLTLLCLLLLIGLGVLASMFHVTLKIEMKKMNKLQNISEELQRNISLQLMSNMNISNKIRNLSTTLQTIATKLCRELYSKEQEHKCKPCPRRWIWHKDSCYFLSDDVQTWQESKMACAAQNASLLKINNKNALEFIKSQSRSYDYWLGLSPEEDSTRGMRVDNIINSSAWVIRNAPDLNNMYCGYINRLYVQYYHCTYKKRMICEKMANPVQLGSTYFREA
Nature of the experiment: flow cytometry, HL-60.

T2 sequence (A0A2K5U901 entry or part of it limits assumed): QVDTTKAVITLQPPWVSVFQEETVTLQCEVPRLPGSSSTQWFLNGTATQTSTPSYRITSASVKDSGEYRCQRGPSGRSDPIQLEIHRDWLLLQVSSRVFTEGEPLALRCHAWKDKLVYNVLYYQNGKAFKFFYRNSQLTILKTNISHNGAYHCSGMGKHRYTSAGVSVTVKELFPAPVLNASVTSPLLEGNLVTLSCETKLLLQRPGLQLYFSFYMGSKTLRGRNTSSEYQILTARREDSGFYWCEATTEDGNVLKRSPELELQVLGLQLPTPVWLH
T3 sequence (P08637 17-208 F176V limits assumed): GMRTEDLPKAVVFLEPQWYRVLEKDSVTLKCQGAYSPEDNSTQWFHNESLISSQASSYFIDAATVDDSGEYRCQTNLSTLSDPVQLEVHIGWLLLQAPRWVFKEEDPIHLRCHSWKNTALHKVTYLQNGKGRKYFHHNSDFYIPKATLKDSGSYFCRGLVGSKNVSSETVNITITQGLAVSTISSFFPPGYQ
T9 sequence (Q8SPV9 24-297 limits assumed, chain 1 of 2): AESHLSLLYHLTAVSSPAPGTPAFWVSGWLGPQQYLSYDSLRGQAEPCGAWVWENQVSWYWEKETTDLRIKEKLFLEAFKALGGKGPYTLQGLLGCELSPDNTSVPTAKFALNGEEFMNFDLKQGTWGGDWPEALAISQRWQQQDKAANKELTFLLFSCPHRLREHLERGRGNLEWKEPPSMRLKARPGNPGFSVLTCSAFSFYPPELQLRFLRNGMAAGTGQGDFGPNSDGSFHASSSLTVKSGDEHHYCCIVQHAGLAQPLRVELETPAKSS
T9 sequence (Q8SPW0 21-119 limits assumed, chain 2 of 2): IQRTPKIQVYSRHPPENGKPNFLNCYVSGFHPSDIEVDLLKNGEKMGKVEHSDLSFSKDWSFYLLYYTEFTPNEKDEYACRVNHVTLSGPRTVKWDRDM

B1: F3'-1602 TriNKET (bispecific antibody, human IgG1, kappa)
chain: QLQLQESGPGLVKPSETLSLTCTVSGFSLTNYGLHWIRQPPGKCLEWIGVIWSGGKTDYNPSLKSRVTISKDTSKNQFSLKLSSVQAADTAVYYCAKYDYDDSLDYWGQGTLVTVSSGGGGSGGGGSGGGGSGGGGSDIQMTQSPSSLSASVGDRVTITCHASQNINFWLSWYQQKPGKAPKLLIYEASNLHTGVPSRFSGSGSGTRFTLTISSLQPEDIATYYCQQSHSYPLTFGCGTKLEIKGSDKTHTCPPCPAPELLGGPSVFLFPPKPKDTLMISRTPEVTCVVVDVSHEDPEVKFNWYVDGVEVHNAKTKPREEQYNSTYRVVSVLTVLHQDWLNGKEYKCKVSNKALPAPIEKTISKAKGQPREPRVYTLPPCRDELTKNQVSLTCLVKGFYPSDIAVEWESNGQPENNYKTTPPVLVSDGSFTLYSKLTVDKSRWQQGNVFSCSVMHEALHNHYTQKSLSLSPG
heavy: EVQLVESGGGLVKPGGSLRLSCAASGFTFSSYSMNWVRQAPGKGLEWVSSISSSSSYIYYADSVKGRFTISRDNAKNSLYLQMNSLRAEDTAVYYCARGAPIGAAAGWFDPWGQGTLVTVSSASTKGPSVFPLAPSSKSTSGGTAALGCLVKDYFPEPVTVSWNSGALTSGVHTFPAVLQSSGLYSLSSVVTVPSSSLGTQTYICNVNHKPSNTKVDKKVEPKSCDKTHTCPPCPAPELLGGPSVFLFPPKPKDTLMISRTPEVTCVVVDVSHEDPEVKFNWYVDGVEVHNAKTKPREEQYNSTYRVVSVLTVLHQDWLNGKEYKCKVSNKALPAPIEKTISKAKGQPREPQVCTLPPSRDELTENQVSLTCLVKGFYPSDIAVEWESNGQPENNYKTTPPVLDSDGSFFLYSWLTVDKSRWQQGNVFSCSVMHEALHNHYTQKSLSLSPG
light: DIQMTQSPSSVSASVGDRVTITCRASQGISSWLAWYQQKPGKAPKLLIYAASSLQSGVPSRFSGSGSGTDFTLTISSLQPEDFATYYCQQGVSFPRTFGGGTKVEIKRTVAAPSVFIFPPSDEQLKSGTASVVCLLNNFYPREAKVQWKVDNALQSGNSQESVTEQDSKDSTYSLSSTLTLSKADYEKHKVYACEVTHQGLSSPVTKSFNRGEC
notes: Trispecific F3' format: CLEC12A scFv-Fc paired with NKG2D Fab-Fc; Stressed and control samples of the stability studies are the same molecule; also called AB0237
Consider B1, for which the values for the Kd with mFc-hNKG2D [1], with mFc-hNKG2D [2] and with mFc-hNKG2D [3] were 791 nM, 727 nM and 677 nM, respectively.

B2: AB0192 TriNKET (other)
chain: EVQLVESGGGVVQPGGSLRLSCAASGFTFNAFGMHWVRQAPGKCLEWVAFISSGSTSIYYANTVKGRFTISRDNSKNTLYLQMNSLRAEDTAVYYCARDGYPTGGAMDYWGQGTSVTVSSGGGGSGGGGSGGGGSGGGGSDIQMTQSPSSLSASVGDRVTITCKASQDIYNYLSWFQQKPGKAPKPLIYRANILVSGVPSRFSGSGSGQDYTFTISSLQPEDIATYYCLQFDAFPFTFGCGTKLEIKGSDKTHTCPPCPAPELLGGPSVFLFPPKPKDTLMISRTPEVTCVVVDVSHEDPEVKFNWYVDGVEVHNAKTKPREEQYNSTYRVVSVLTVLHQDWLNGKEYKCKVSNKALPAPIEKTISKAKGQPREPRVYTLPPCRDELTKNQVSLTCLVKGFYPSDIAVEWESNGQPENNYKTTPPVLVSDGSFTLYSKLTVDKSRWQQGNVFSCSVMHEALHNHYTQKSLSLSPG
heavy: B1 heavy
light: B1 light
notes: the condition stands under assay; also called AB0192 Lot AB0192-005
As to B2, the Kd in the experiment with Cynomolgus CD64 was 2.2 nM and 1.5 nM and 1.9 nM and 2.1 nM; with Human CD16a V158 it was 194 nM; with Human CLEC12A-His, 1.81 nM; with mFc-hNKG2D [4] it was 602 nM; in the experiment with Human CD32b, 6500 nM and 5600 nM and 5200 nM and 7000 nM. Also, the koff in the experiment with Cynomolgus CD64 was 0.00012 s⁻¹ and 0.00011 s⁻¹; in the experiment with Human CD16a V158 it was 0.0201 s⁻¹; with Human CLEC12A-His, 0.0014 s⁻¹; with mFc-hNKG2D [4], 0.127 s⁻¹. Moreover, the kon is 54000 M⁻¹ s⁻¹ and 80000 M⁻¹ s⁻¹ and 57000 M⁻¹ s⁻¹ and 55000 M⁻¹ s⁻¹ in the experiment with Cynomolgus CD64; 103000 M⁻¹ s⁻¹ with Human CD16a V158; 776000 M⁻¹ s⁻¹ with Human CLEC12A-His; 211000 M⁻¹ s⁻¹ with mFc-hNKG2D [4].

B3: AB0089 TriNKET (bispecific antibody, human IgG1, kappa)
chain: B1 chain with S53V, K56A, K71V, Y98G, D101G, S103T, R207D, I220F
heavy: B1 heavy
light: B1 light
notes: F3' format heterodimer of three chains; human IgG1 Fc with EW-RVT and Y349C/S354C mutations; also called AB0089 Lot AB0089-002; CLEC12A TriNKET AB0089
As to B3, the kon in experiment [5] was 1.01e+07 M⁻¹ s⁻¹; in [9], 171000 M⁻¹ s⁻¹; in experiment [10], 161000 M⁻¹ s⁻¹ and 159000 M⁻¹ s⁻¹ and 166000 M⁻¹ s⁻¹. The Kd in experiment [6] was 0.9 nM; in [7], 0.9 nM; in experiment [9] it was 762 nM; in experiment [10] it was 872 nM and 892 nM and 880 nM. The koff is 0.0426 s⁻¹ and 0.0449 s⁻¹ and 0.0432 s⁻¹ in experiment [8]; 0.13 s⁻¹ in experiment [9]; 0.141 s⁻¹ and 0.142 s⁻¹ and 0.146 s⁻¹ in [10].

B4: F3'-1602 TriNKET (other)
chain: B1 chain
heavy: B1 heavy
light: B1 light
notes: CLEC12A scFv-Fc, NKG2D A49MI Fab-Fc, human IgG1 Fc; also called AB0237
In the case of B4, the Kd in experiment [11] was determined as 1300 nM. In experiment [12], the “fold lower EC50 than AB0010” value is about 2 fold.
